The record followed here is patent US20020001806A1, “Caspase-3s splicing variant” (priority 2000, published 2002).

Entries after “also recorded” stand apart in the source; their conditions may differ.

What all share (assay type): cell-based, human
The subject of assay [1] is endogenous caspase-3. The assay can be described thus: Western blot (anti-caspase-3) of endogenous caspase-3 in untransfected 293 cells after IGAL treatment. The settings on record: 5 μM IGAL, 48 hours. The procedure: (§1) FIG. 6. A. 293 cells were transfected with flag-tagged caspase-3, flag-tagged caspase-3s or pcDNA3 vector, followed by IGAL treatment for 16 hours or left untreated (control). Fifty microgram of total cellular protein was assayed for caspase-3 and caspase-3s expression using antibody specific for flag-tag. The asterisk (*) indicates the N-terminal flag-tag containing activated capase-3 (20 kDa). The uppermost and lowest short arrow denote the two additional bands, 40 kDa and 14 kDa, respectively. […] 293 cells were treated with 5 μM IGAL for 48 hours. Total cell lysates were isolated and assayed for caspase-3 expression by Western blotting. The blot was probed with anticaspase-3 antibody (Pharmingen). […]
Evidence that the levels of endogenous caspase-3 and caspase-3s are regulated by proteasome degradation was also sought. Untransfected 293 cells were subjected to IGAL treatment and the cell samples were analyzed on Western blots probed with anticapase-3 antibody (Pharmingen). […] In parallel, a faint immunoreactive band of 20 kDa (p20) was detected only in the presence of IGAL treatment (FIG. 6B).

In assay [2] the test system is caspase-3 and caspase-3s expression. The experiment in a line: Western blot (anti-flag) of recombinant caspase-3 and caspase-3s in transfected 293 cells after IGAL treatment. The conditions noted are these: IGAL treatment 16 hours. The procedure: as §1
Proteasome appears to regulate caspase-3 potentially in two ways. […] To examine the effects of proteasome inhibitor on the expression of caspase-3 and caspase-3s, total cellular protein from transfected 293 cells treated with proteasome inhibitor IGAL were analyzed by Western blotting probed with the N-terminal antiflag antibody. […] In addition, we reproducibly detected two additional bands with a size of 40 kDa and 14 kDa, respectively, after IGAL treatment (FIG. 6B, lane 6). […]

Assay [3] deals with 293 cells. The experiment in a line: DNA fragmentation ELISA (Cell Death Detection ELISA) in transfected 293 cells. The conditions noted are these: for apoptosis induced by staurosporine (DNA fragmentation): 0.5 μM staurosporine, 20 hours; for DNA fragmentation (basal apoptosis): untreated, vs vector and caspase-3s. The procedure: (§2) Human embryonal kidney 293 cells were seeded 1×10^5 into each well of a 24-well plate and transfected with caspase-3 and caspase-3s cDNA constructs by calcium phosphate method (Sun Y., Bian J., Wang Y., Jacobs C. Oncogene 1997;14:385-93;14: 385-393). Briefly, 500 nanogram of DNA was incubated in 0.25 M CaCl2 solution for 10 minutes at room temperature. The mixture was then incubated with 1×HEPES buffer (pH 6.88) for 15 minutes at room temperature before being added to the culture medium. After 6 to 7 hours transfection, transfection medium was replaced with fresh Opti-MEMI medium (GIBCO) containing 5 μM of Proteasome Inhibitor I (Z-Ile-Glu(otBu)-Ala-Leu-CHO) (Calbiochem) and incubated for 16 hours. For staurosporine treatment, cells were allowed to grow for 24 hours in serum containing medium after transfection. Cells then incubated with 0.5 μM staurosporine (Calbiochem) in Opti-MEMI medium for 20 hours.
DNA fragmentation ELISA was performed using the Cell Death Detection ELISA kit (Boehringer Mannheim) following the instruction provided by the supplier. Briefly, after 16 hours treatment with IGAL (Proteasome Inhibitor I), 293 cells were lysed by incubation with 500 μL of cell lysis buffer for 2 hours at room temperature. The lysate were then centrifuged at 200×g for 10 minutes. Twenty microliter of the supernatant were transferred into the streptavidin coated microtiter plate for analysis using the reagents provided with the assay kit. Statistical analyses were performed with student t-test using Microsoft Excel analysis tools.

Assay [4] concerns 293 cells. The experiment in a line: Cytotox 96 colorimetric LDH release cytotoxicity assay in transfected 293 cells. The conditions noted are these: for apoptosis / cell death (LDH release) induced by proteasome inhibitor I: 5 μM proteasome inhibitor I, 12 hours, vs vector. The procedure:
The following experiments were performed to test the hypothesis that caspase-3s acts as a dominant negative isoform of caspase-3. The pcDNA empty vector, caspase-3, and caspase-3s constructs were transfected into 293 cells using the method described above (Sun et al., Supra., 1997). After 6 to 7 hours transfection, transfection medium was replaced with fresh medium containing 5 μM of proteasome inhibitor I (Z-Ile-Glu(otBu)-Ala-Leu-CHO) (Calbiochem). Cells were then incubated for 12 hours. Twenty-five microliter of the culture medium was subjected to cytotoxicity assay using the Cytotox 96 colorimetric LDH assay kit (Promega) according to manufacturer's instruction. Statistics were performed with t-test using Microsoft Excel analysis tools.
For control cells, lactate dehydrogenase (LDH) release in caspase-3 transfected cells was compared with both vector and caspase-3s transfected cells. For proteasome inhibitor treated cells, LDH release was compared between vector and caspase-3s transfected cells.

Assay [5] relates to PARP. The experiment in a line: PARP cleavage to 85 kDa breakdown product by Western blot in transfected 293 cells. The settings on record: for PARP cleavage (Western blot): IGAL treatment 16 hours, vs vector control; for PARP breakdown product (85 kDa), densitometric quantification: normalized to vector control, n=8. The procedure:
as §2
Preparation of whole cell lysates and Western blotting were performed as previously described (McGinnis K. M., Gnegy M. E., Wang K. K. W. Endogenous bax translocation in SH-SY5Y human neuroblastoma cells and cerebellar granule neurons undergoing apoptosis. J. Neurochem. 1999;72:1899-1906; Huang Y., Domann F. E. Transcription factor AP-2 mRNA and DNA binding activity are constitutively expressed in SV40-immortalized but not normal human lung fibroblasts. Arch. Biochem. Biophys. 1999;364: 241-246). The blots were probed with antihuman caspase-3 p20 goat polyclonal antibody (Santa Cruz, CAT #sc-1226), antihuman caspase-3 rabbit polyclonal antibody (Pharmingen, CAT #65906E), antiflag monoclonal antibody (Sigma, CAT #F3165), or antihuman monoclonal PAPR antibody (Biomol Research Laboratories, Inc CAT #SA-250).
It is known that cleavage of caspase-3 substrates, such as poly(ADP)ribose polymerase (PARP), is prerequisite for apoptosis. Therefore, the effects of caspase-3s overexpression on PARP cleavage in both control and IGAL treated 293 was examined, along with caspase-3 overexpression as positive control. Cleavage of PARP to an immunoreactive breakdown product (85 kDa) was measured by Western blot.

In the case of Z-Ile-Glu(otBu)-Ala-Leu-CHO [IGAL], in assay [1], the “endogenous activated caspase-3 (p17)” value is on record as “appearance of the 17 kDa activated caspase-3 (p17)” and the “levels of endogenous full-length caspase-3 (p32)” value was “remain the same; also recorded: stabilized endogenous caspase-3 expression”. The “amount of recombinant caspase-3s” value in assay [2] (flag-tagged caspase-3s transfected 293 cells) is “dramatic increase”. Besides, in assay [2] (flag-tagged caspase-3 transfected 293 cells), the “abundance of recombinant full length caspase-3 (32 kDa band)” value is recorded as “decrease in the abundance”.

B1: caspase-3: full length caspase-3 (32 kDa) cDNA in pcDNA3 vector transfected into 293 cells (protein, UniProt P42574 1-277, looked up)
chain: MENTENSVDSKSIKNLEPKIIHGSESMDSGISLDNSYKMDYPEMGLCIIINNKNFHKSTGMTSRSGTDVDAANLRETFRNLKYEVRNKNDLTREEIVELMRDVSKEDHSKRSSFVCVLLSHGEEGIIFGTNGPVDLKKITNFFRGDRCRSLTGKPKLFIIQACRGTELDCGIETDSGVDDDMACHKIPVEADFLYAYSTAPGYYSWRNSKDGSWFIQSLCAMLKQYADKLEFMHILTRVNRKVATEFESFSFDATFHAKKQIPCIVSMLTKELYFYH
modifications: full-length
notes: full length caspase-3 (32 kDa) cDNA in pcDNA3 vector transfected into 293 cells
Regarding B1, in assay [3], the “apoptosis induced by staurosporine (DNA fragmentation)” value is reported as “did not reduce” and the “DNA fragmentation (basal apoptosis)” value was “significantly increased DNA fragmentation”. The “DNA fragmentation (basal apoptosis)” value in assay [3] (listed as capase-3) is “induced basal apoptosis”. Further, in assay [4], the “apoptosis / cell death (LDH release) induced by proteasome inhibitor I” value is recorded as “underwent substantial apoptosis”. Further, the “apoptosis (LDH release)” value in assay [4] (untreated condition, vs vector and caspase-3s transfected cells) is “significantly increased apoptosis”. For the same molecule, in assay [5], the “PARP cleavage (Western blot)” value was “enhanced by IGAL treatment” and the “PARP breakdown product (85 kDa), densitometric quantification” value was “increased PARP cleavage”. Also, in assay [5] (nontreated), the “basal PARP cleavage (Western blot)” value is given as “increased basal PARP cleavage”.

B2: caspase-3s: novel splicing variant of caspase-3, C-terminal truncated, 182 amino acids (SEQ ID No. 2); tested as transfected pcDNA3 cDNA construct (protein, listed as Homo sapiens)
chain: MENTENSVDSKSIKNLEPKIIHGSESMDSGISLDNSYKMDYPEMGLCIIINNKNFHKSTGMTSRSGTDVDAANLRETFRNLKYEVRNKNDLTREEIVELMRDVSKEDHSKRSSFVCVLLSHGEEGIIFGTNGPVDLKKITNFFRGDRCRSLTGKPKLFIIQVIILGEIQRMAPGSSSRFVPC
As to B2, in assay [3], the “apoptosis induced by staurosporine (DNA fragmentation)” value was “no significant effect”. Also, the “DNA fragmentation (apoptosis) induced by IGAL” value in assay [3] (5 μM IGAL, 16 hours, vs vector control and caspase-3, n=4) is listed as “partially but significantly inhibited apoptosis; also recorded: significantly (# p<0.05) inhibited DNA fragmentation”. In addition, the “apoptosis / cell death (LDH release) induced by proteasome inhibitor I” value is recorded as “significantly inhibited; also recorded: inhibits apoptotic cell death” in assay [4] and “inhibits cell death” in assay [4] (listed as Caspase-3s). Further, the figures for the “PARP cleavage (Western blot)” value in assay [5] and in assay [5] (listed as Caspase-3s) were “partially but significantly inhibited the cleavage of PARP” and “partially inhibited PARP cleavage”, respectively. For the same molecule, the “PARP breakdown product (85 kDa), densitometric quantification” value in assay [5] was “significantly decreased”.
